Measured values: patent US20240245799A1, “PREPARATION METHOD FOR ANTIBODY-DRUG CONJUGATE, AND APPLICATION” (priority 2021, published 2024)

Experiments:
[1] = test system: NCI-H2170, LK-2 and MDA-MB-231 tumor cells; assay: In vitro cytotoxic activity test, overall statements on the tumor cells of Table 1; format: cell-based, human; conditions: statement on Table 1
Description: Human lung squamous carcinoma cell NCI-H2170 and LK-2, and human breast cancer cell MDA-MB-231 were selected as the cell lines for in vitro activity detection in this experiment. The expression profile of the TROP2 antigen on the surfaces of the above human tumor cells (represented by rMFI) was determined by flow cytometry (FACS). At the same time, the dose-effect profiles of Antibody Conjugate 13, DS-1062a (the control drug, prepared according to the method described in U.S. Ser. No. 11/173,213B2), the hIgG-deruxtecan conjugate and the hIgG-A-11 conjugate on cell killing were observed. The final concentrations of the antibody drug conjugates after addition were designed as a series of 9 concentrations from […] with 500 nM as the initial concentration. The changes in killing (or inhibition) over 120 hours were observed. Chemiluminescence staining (Luminescent Cell Viability Assay) was carried out, and IC50 was calculated after reading the […] data.

[2] = test system: Human lung squamous carcinoma cells NCI-H2170; assay: In vivo anti-tumor experiment, subcutaneous NCI-H2170 xenograft; set-up: species or system female nude mice; conditions: single dose of 5 mg/kg intravenously on day 0, FIG. 28
Description: The efficacy of the combination of the present invention can be measured in vivo, i.e., an allograft or xenograft of cancer cells was implanted in rodents, and the tumors were treated with the combination. Test mice were treated with drugs or controls and monitored for several weeks or longer to measure the time to tumor doubling, log cell killing, and tumor inhibition.
Human lung squamous carcinoma cells NCI-H2170 (ATCC) were suspended in physiological saline. 4×10^7 cells were subcutaneously transplanted into the right flank of female nude mice, which were randomized into groups on day 6. Taking the grouping day as day 0, Antibody Conjugate 13, DS-1062a (the positive control drug) and the hIgG-A-11 conjugate as a negative control group were administered intravenously to the tail at a dose of 5 mg/kg respectively on day 0.

B1: DS-1062a (conjugate, chains of the INN, looked up)
VH: QVQLVQSGAEVKKPGASVKVSCKASGYTFTTAGMQWVRQAPGQGLEWMGWINTHSGVPKYAEDFKGRVTISADTSTSTAYLQLSSLKSEDTAVYYCARSGFGSSYWYFDVWGQGTLVTVSS
VL: DIQMTQSPSSLSASVGDRVTITCKASQDVSTAVAWYQQKPGKAPKLLIYSASYRYTGVPSRFSGSGSGTDFTLTISSLQPEDFAVYYCQQHYITPLTFGQGTKLEIK
modifications: deruxtecan payload
- inhibition of tumor cell proliferation / in vitro anti-tumor activity [1]: could inhibit tumor cell proliferation significantly
- in vivo anti-tumor activity [2]: showed anti-tumor activity
